The target of test [1] is B-domain deleted FVIII (N8, turoctocog alfa) (UniProt P00451). In words: ITC; MicroCal iTC200, 25 °C, 19 injections (first 0.4 uL, the rest 2 uL), 120 s between injections; who was in the syringe and the concentrations not given.
Test [2] has as its system FVIII. The settings on record: full-length VWF R816W; cited from earlier work. An excerpt: Arg816 is located in the VWF TIL’ β3-β4 sheet ([31]), where the largest chemical shift changes were observed (Figs. 2 and 3).
Test [3] concerns TIL’E’. In words: ITC of FVIII a3 peptides with TIL’E’. The class given is binding. To be noted: 25°C, higher concentrations not feasible due to solubility. The method, then:
(§1) ITC experiments were performed on a MicroCal iTC200 (Malvern Instruments, Malvern, UK) at 25°C. All experiments were performed with a total of 19 injections (the first injection 0.4 μL, the rest 2 μL), with 120 s between each injection and an initial delay of 60 s. The reference power was set to 6 μcal/s, and the syringe was stirred at 750 or 1000 Rpm depending on the specifications of the syringe. The concentrations of proteins used are specified in the figure legends.

Test [4] relates to VWF TIL’E’ R816W. The experiment in a line: NMR 15N-1H HSQC of VWF TIL’E’ R816W with FVIII a3sTyr1664-sTyr1680. To be noted: five molar excess of peptide, 298 K. It is filed as binding. The method, then: All NMR spectra were recorded at 298 K on Bruker Avance III 700 MHz or Bruker Avance III HD 800 MHz spectrometers equipped with cryoprobes. NMR samples consisted of 10–300 μM isotope labeled TIL’E’ in 10 mM HEPES 300 mM NaCl 5 mM CaCl2 5% D2O pH 7.3.
Two-dimensional ^15N-^1H heteronuclear single quantum correlation (HSQC) spectra ([39]) were recorded with 3-9-19 Watergate, whereas two-dimensional methyl–transverse relaxation optimized spectroscopy (TROSY) experiments were recorded using the standard heteronuclear multiple quantum coherence pulse scheme ([40]).
Arg816 is located in the VWF TIL’ β3-β4 sheet ([31]), where the largest chemical shift changes were observed (Figs. 2 and 3). […] However, the most affected residues are located far from each other on the three-dimensional structure of VWF TIL’E’.

Test [5] has as its system FVIII. The experiment in a line: ITC of VWF TIL’E’ constructs and mutants with FVIII. It is filed as binding. The settings on record: 25°C; for N: ITC stoichiometry. The method, then: as §1
The target of test [6] is T1, VWF TIL’E’ (construct 1, residues 764–865 of VWF) (UniProt P04275 764-865).
T1 construct: von Willebrand factor, TIL’E’ domains, residues 764-865; mature VWF starts at Ser764; enterokinase site GTDDDDK immediately before residue 764; every result printed for plain 'VWF TIL’E’' is written on this molecule; Uniformly 15N-labelled or ILV-13CH3/2H-labelled in the NMR experiments; also called wild-type VWF TIL’E’; source: thioredoxin and His6 tag cut off with enterokinase; not shown: …
The experiment in a line: NMR titration; 15N-1H HSQC of 100 uM 15N-labelled VWF TIL’E’ free and with ~500 uM (five molar excess) unlabelled FVIII a3 peptide; 298 K; 10 mM HEPES 300 mM NaCl 5 mM CaCl2 5% D2O pH 7.3; saturation not reached, upper bound of Kd from chemical shift changes. To be noted: both partners purified.

[7] abbreviates: ITC, three independent ITC experiments.

“And” between values parts separate entries of the source, which are not always exact repeats. Identical values can stand only once. “Also recorded” adds a separate entry of the source. Square brackets hold non-standard residues; d marks the D form. Ends that are not written are not given here. sY = N[C@@H](Cc1ccc(OS(=O)(=O)O)cc1)C(=O)O

In test [1], “VWF TIL’E’-ALA-HPC4 expressed in HKB11 cell line (construct 4) (domain or fragment)” returned a Kd of 0.75 µM.
With “VWF TIL’E’ (construct 1, residues 764–865 of VWF) (from UniProt P04275 764-865) (domain or fragment)”, in test [1], the Kd came to 0.71 µM, the dH was -12 kcal/mol and the stoichiometry N came out at 1.
In test [1], “VWF TIL’E’-ALA-HPC4 (construct 3, residues 764–865 with C-terminal HPC4 tag), from E. coli (from UniProt P04275 764-865) (domain or fragment)” came in with a Kd of 0.64 µM.
Regarding “VWF TIL’E’ R854Q (in the construct 1 background) (from UniProt P04275 764-865) (domain or fragment)”, in test [1], the dissociation constant (Kd) amounted to 7.2 µM, the dH was -7.5 kcal/mol and the stoichiometry N was 1.29.
As to “VWF R816W: full-length VWF R816W, severe VWD type 2N mutation”, the “binding to FVIII in ELISA” value in test [2] is recorded as “does not bind FVIII”.
Turning to `CC[C@H](C)[C@H](NC(=O)[C@H](CC(=O)O)NC(=O)[C@H](Cc1ccccc1)NC(=O)[C@H](CC(=O)O)NC(=O)[C@H](CCC(=O)O)NC(=O)[C@H](CCCCN)NC(=O)[C@H](CCCCN)NC(=O)[C@H](CCSC)NC(=O)[C@H](CCC(=O)O)NC(=O)[C@@H](NC(=O)[C@H](CO)NC(=O)[C@@H](NC(=O)[C@@H](NC(=O)[C@H](CC(=O)O)NC(=O)[C@H](CC(=O)O)NC(=O)[C@H](Cc1ccc(OS(=O)(=O)O)cc1)NC(=O)[C@H](CC(=O)O)NC(=O)[C@@H](NC(=O)[C@H](CCC(=O)O)NC(=O)[C@H](CCC(=O)O)NC(=O)[C@H](CCC(N)=O)NC(=O)[C@H](CC(=O)O)NC(=O)[C@H](CO)NC(=O)[C@H](CCC(N)=O)NC(=O)[C@H](CC(C)C)NC(=O)[C@@H](NC(=O)[C@@H](NC(=O)[C@H](CCCNC(=N)N)NC(=O)[C@@H](NC(=O)[C@@H](NC(=O)[C@@H](N)CCC(=O)O)[C@@H](C)CC)[C@@H](C)O)[C@@H](C)O)[C@@H](C)O)[C@@H](C)CC)[C@@H](C)O)[C@@H](C)CC)C(C)C)C(=O)N[C@@H](Cc1ccc(OS(=O)(=O)O)cc1)C(=O)N[C@@H](CC(=O)O)C(=O)N[C@@H](CCC(=O)O)C(=O)N[C@@H](CC(=O)O)C(=O)N[C@@H](CCC(=O)O)C(=O)N[C@@H](CC(N)=O)C(=O)N[C@@H](CCC(N)=O)C(=O)N[C@@H](CO)C(=O)N1CCC[C@H]1C(=O)N[C@@H](CCCNC(=N)N)C(=O)O` [a3sTyr1664-sTyr1680], the “binding to TIL’E’ by ITC (in words)” value in test [3] is reported as “no high-affinity binding”. Also, the “effect of R816W on affinity between FVIII a3 and VWF TIL’E’” value in test [4] is “decreases the affinity”.
For the molecule “VWF TIL’E’ R854K (in the construct 1 background) (from UniProt P04275 764-865) (domain or fragment)”, in test [1], the dissociation constant (Kd) worked out at 25 µM.

B1: VWF GAMG-TIL’E’: four amino acids GAMG followed by residues 766–864 of VWF (protein)
chain: GAMGSCRPPMVKLVCPADNLRAEGLECTKTCQNYDLECMSMGCVSGCLCPPGMVRHENRCVALERCPCFHQGKEYAPGETVKIGCNTCVCQDRKWNCTDHVCD
For B1, in test [5] (ITC), the “binding to FVIII by ITC (in words)” value is “substantially reduced binding; also recorded: the binding to FVIII had been abrogated; also recorded: unable to bind FVIII with micromolar affinity”.

B2: VWF TIL’E’: residues 764–865 of VWF; constructs 1 and 3 used interchangeably (protein)
chain: SLSCRPPMVKLVCPADNLRAEGLECTKTCQNYDLECMSMGCVSGCLCPPGMVRHENRCVALERCPCFHQGKEYAPGETVKIGCNTCVCQDRKWNCTDHVCDA
modifications: left off: thioredoxin, N-terminal, cleaved | His6, N-terminal, cleaved
notes: residues 764–865 of VWF; constructs 1 and 3 used interchangeably
B2 yielded a N in test [5] (three independent ITC experiments) of 1.0 ± 0.3. Also, the “binding to FVIII by ITC (in words)” value in test [5] (ITC) is recorded as “micromolar interaction”. In test [5] (setting [7]), the dissociation constant Kd was 0.7 µM and 0.71 µM; the ΔH was -12.0 ± 1.3 kcal/mol.

B3: VWF R816W TIL’E’: VWD type 2N mutation R816W introduced into the construct 3 background (protein)
chain: SLSCRPPMVKLVCPADNLRAEGLECTKTCQNYDLECMSMGCVSGCLCPPGMVWHENRCVALERCPCFHQGKEYAPGETVKIGCNTCVCQDRKWNCTDHVCDA
modifications: left off: His6, N-terminal, cleaved | DsbC, N-terminal, cleaved | HPC4 (…: ALA linker and …), C-terminal, state not stated
notes: VWD type 2N mutation R816W introduced into the construct 3 background
Turning to B3, the “binding to FVIII by ITC (in words)” value in test [5] (ITC, listed as VWF TIL’E R816W) is reported as “no binding was observed”.

B4: VWF R854Q TIL’E’: VWD type 2N mutation R854Q introduced into the construct 1 background (protein)
chain: SLSCRPPMVKLVCPADNLRAEGLECTKTCQNYDLECMSMGCVSGCLCPPGMVRHENRCVALERCPCFHQGKEYAPGETVKIGCNTCVCQDQKWNCTDHVCDA
modifications: left off: thioredoxin, N-terminal, cleaved | His6, N-terminal, cleaved
notes: VWD type 2N mutation R854Q introduced into the construct 1 background
Turning to B4, in test [5] (one run), the N came out at 1.29 ± 0.03. In test [5] (ITC), the “binding to FVIII by ITC (in words)” value was “Weak binding” and the “increase in Kd compared to the wild-type” value was “about an order of magnitude”. Further, in test [5] (ITC, one run), binding was put at a Kd of 7.2 ± 0.6 µM and the ΔH is -7.5 ± 0.2 kcal/mol.

B5: R854K: mutation R854K introduced into the construct 1 background (protein)
chain: SLSCRPPMVKLVCPADNLRAEGLECTKTCQNYDLECMSMGCVSGCLCPPGMVRHENRCVALERCPCFHQGKEYAPGETVKIGCNTCVCQDKKWNCTDHVCDA
modifications: left off: thioredoxin, N-terminal, cleaved | His6, N-terminal, cleaved
notes: mutation R854K introduced into the construct 1 background
The molecule B5 yielded a Kd in test [5] (ITC, n not given) of 25 ± 20 µM.
Turning to EITRTTLQSDQEEID[sY]DDTISVEMKKEDFDI[sY]DEDENQSPR [FVIII a3 peptide a3_(sTyr1664-sTyr1680) (residues 1649–1689, Tyr1664 and Tyr1680 sulfated)], the equilibrium dissociation constant (Kd) in test [6] was below 25000 µM.

Values taken from publication PMC6697466, “Interaction Between the a3 Region of Factor VIII and the TIL’E’ Domains of the von Willebrand Factor” (Biophysical Journal, 2019).
